Assay results from patent JP2021530247A.

Key:
[1] = target: 10ng/mLのタンパク質サンプル (rBcl-2; R&D Systems or in-house, not stated) (UniProt P10415); experiment: sandwich ELISA with the commercial reagents (taken as Bcl-2/100 capture, 4D7-biotin detector), 10 ng/mL protein
[2] = target: Bcl-2を発現しているライセート (UniProt P10415); experiment: sandwich ELISA with the commercial reagents (taken as Bcl-2/100 capture, 4D7-biotin detector), lysate

What does the source list for mAb Bcl-2/100 (antibody)?
OD [1]: 0.67 OD; OD [2]: 0.24 OD
